{
  "source": "patent US20240261333A1",
  "about": "“NOVEL TARGETS FOR ENHANCING ANTI-TUMOR IMMUNITY” (THE BROAD INSTITUTE, INC., priority 2021, published 2024)",
  "key": {"CFL1": {"target": "CFL1 (UniProt P23528)", "test": "co-IP, IgG control, N-FLAG B3GNT2 cell lysate, mass spectrometry"}, "RPL22": {"target": "RPL22 (UniProt P35268)", "test": "co-IP, IgG control, N-FLAG B3GNT2 cell lysate, mass spectrometry"}, "POF1B": {"target": "POF1B (UniProt Q8WVV4)", "sequence (Q8WVV4 other isoform, or with tags, fused parts or gaps limits assumed)": "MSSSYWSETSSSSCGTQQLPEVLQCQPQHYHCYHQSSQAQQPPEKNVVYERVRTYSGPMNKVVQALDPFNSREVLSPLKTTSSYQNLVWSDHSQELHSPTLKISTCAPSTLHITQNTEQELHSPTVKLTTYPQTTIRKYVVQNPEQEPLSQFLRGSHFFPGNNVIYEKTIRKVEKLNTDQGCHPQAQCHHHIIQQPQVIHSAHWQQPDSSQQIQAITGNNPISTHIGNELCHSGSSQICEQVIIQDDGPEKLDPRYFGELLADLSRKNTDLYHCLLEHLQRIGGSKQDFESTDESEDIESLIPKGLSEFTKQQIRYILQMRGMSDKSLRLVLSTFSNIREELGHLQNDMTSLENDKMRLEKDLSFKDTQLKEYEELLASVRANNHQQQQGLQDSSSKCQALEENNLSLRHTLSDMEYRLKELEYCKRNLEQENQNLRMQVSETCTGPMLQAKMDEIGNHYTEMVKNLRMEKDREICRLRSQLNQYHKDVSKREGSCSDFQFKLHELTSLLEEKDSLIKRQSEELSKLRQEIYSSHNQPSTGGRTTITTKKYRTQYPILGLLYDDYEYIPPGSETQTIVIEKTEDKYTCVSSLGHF", "test": "co-IP, IgG control, N-FLAG B3GNT2 cell lysate, mass spectrometry"}, "MTDH": {"target": "MTDH (UniProt Q86UE4)", "test": "co-IP, IgG control, N-FLAG B3GNT2 cell lysate, mass spectrometry"}, "CDSN": {"target": "CDSN (UniProt Q15517)", "test": "co-IP, IgG control, N-FLAG B3GNT2 cell lysate, mass spectrometry"}, "MTCH2": {"target": "MTCH2 (UniProt Q9Y6C9)", "test": "co-IP, IgG control, N-FLAG B3GNT2 cell lysate, mass spectrometry"}, "EMD": {"target": "EMD (UniProt P50402)", "sequence (P50402 whole entry)": "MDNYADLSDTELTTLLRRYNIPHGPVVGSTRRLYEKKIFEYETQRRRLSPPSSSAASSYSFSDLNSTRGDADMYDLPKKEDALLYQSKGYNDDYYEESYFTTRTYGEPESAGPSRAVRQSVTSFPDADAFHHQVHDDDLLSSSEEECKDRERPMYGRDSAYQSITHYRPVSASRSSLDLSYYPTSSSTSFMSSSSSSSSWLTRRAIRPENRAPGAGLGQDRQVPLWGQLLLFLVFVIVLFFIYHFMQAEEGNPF", "test": "co-IP, IgG control, N-FLAG B3GNT2 cell lysate, mass spectrometry"}, "NCCRP1": {"target": "NCCRP1 (UniProt Q6ZVX7)", "test": "co-IP, IgG control, N-FLAG B3GNT2 cell lysate, mass spectrometry"}, "RPL37A": {"target": "RPL37A (UniProt P61513)", "test": "co-IP, IgG control, N-FLAG B3GNT2 cell lysate, mass spectrometry"}, "TXN": {"target": "TXN (UniProt P10599)", "test": "co-IP, IgG control, N-FLAG B3GNT2 cell lysate, mass spectrometry"}, "RPL35": {"target": "RPL35 (UniProt P42766)", "test": "co-IP, IgG control, N-FLAG B3GNT2 cell lysate, mass spectrometry"}, "HIST1H1E": {"target": "HIST1H1E (UniProt P10412)", "test": "co-IP, IgG control, N-FLAG B3GNT2 cell lysate, mass spectrometry"}, "HNRNPU": {"target": "HNRNPU (UniProt Q00839)", "test": "co-IP, IgG control, N-FLAG B3GNT2 cell lysate, mass spectrometry"}, "ITGB3": {"target": "ITGB3 (UniProt P05106)", "test": "co-IP, IgG control, N-FLAG B3GNT2 cell lysate, mass spectrometry"}, "LIMA1": {"target": "LIMA1 (UniProt Q9UHB6)", "test": "co-IP, IgG control, N-FLAG B3GNT2 cell lysate, mass spectrometry"}, "RPS13": {"target": "RPS13 (UniProt P62277)", "test": "co-IP, IgG control, N-FLAG B3GNT2 cell lysate, mass spectrometry"}, "TNKS1BP1": {"target": "TNKS1BP1 (UniProt Q9C0C2)", "test": "co-IP, IgG control, N-FLAG B3GNT2 cell lysate, mass spectrometry"}, "DEFA3": {"target": "DEFA3 (UniProt P59666)", "test": "co-IP, IgG control, N-FLAG B3GNT2 cell lysate, mass spectrometry"}, "RPS19": {"target": "RPS19 (UniProt P39019)", "test": "co-IP, IgG control, N-FLAG B3GNT2 cell lysate, mass spectrometry"}, "PSMA7": {"target": "PSMA7 (UniProt O14818)", "sequence (O14818 whole entry)": "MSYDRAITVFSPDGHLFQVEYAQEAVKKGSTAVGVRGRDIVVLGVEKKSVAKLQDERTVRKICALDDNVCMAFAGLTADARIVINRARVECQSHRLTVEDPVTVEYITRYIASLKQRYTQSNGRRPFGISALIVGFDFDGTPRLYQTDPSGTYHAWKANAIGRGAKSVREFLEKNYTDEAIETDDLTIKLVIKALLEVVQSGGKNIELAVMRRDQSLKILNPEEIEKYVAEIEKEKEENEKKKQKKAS", "test": "co-IP, IgG control, N-FLAG B3GNT2 cell lysate, mass spectrometry"}, "TMEM59": {"target": "TMEM59 (UniProt Q9BXS4)", "test": "co-IP, IgG control, N-FLAG B3GNT2 cell lysate, mass spectrometry"}, "RPL19": {"target": "RPL19 (UniProt P84098)", "test": "co-IP, IgG control, N-FLAG B3GNT2 cell lysate, mass spectrometry"}, "RPS16": {"target": "RPS16 (UniProt P62249)", "test": "co-IP, IgG control, N-FLAG B3GNT2 cell lysate, mass spectrometry"}, "RPS2": {"target": "RPS2 (UniProt P15880)", "test": "co-IP, IgG control, N-FLAG B3GNT2 cell lysate, mass spectrometry"}, "HSPB1": {"target": "HSPB1 (UniProt P04792)", "sequence (P04792 whole entry)": "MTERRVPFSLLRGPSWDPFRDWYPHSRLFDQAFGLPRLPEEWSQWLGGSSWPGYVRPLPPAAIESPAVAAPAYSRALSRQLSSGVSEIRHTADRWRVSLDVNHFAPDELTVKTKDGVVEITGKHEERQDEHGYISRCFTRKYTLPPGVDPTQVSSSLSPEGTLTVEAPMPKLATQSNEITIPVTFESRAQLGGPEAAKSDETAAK", "test": "co-IP, IgG control, N-FLAG B3GNT2 cell lysate, mass spectrometry"}, "TAGLN": {"target": "TAGLN (UniProt Q01995)", "sequence (Q01995 2-201 limits assumed)": "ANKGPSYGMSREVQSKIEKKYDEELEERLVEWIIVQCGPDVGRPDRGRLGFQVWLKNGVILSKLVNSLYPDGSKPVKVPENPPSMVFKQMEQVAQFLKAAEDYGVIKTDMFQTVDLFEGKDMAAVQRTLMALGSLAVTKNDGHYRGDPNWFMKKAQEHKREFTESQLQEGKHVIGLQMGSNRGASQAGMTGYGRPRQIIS", "test": "co-IP, IgG control, N-FLAG B3GNT2 cell lysate, mass spectrometry"}, "ARG1": {"target": "ARG1 (UniProt P05089)", "test": "co-IP, IgG control, N-FLAG B3GNT2 cell lysate, mass spectrometry"}, "RPL5": {"target": "RPL5 (UniProt P46777)", "test": "co-IP, IgG control, N-FLAG B3GNT2 cell lysate, mass spectrometry"}, "RPS18": {"target": "RPS18 (UniProt P62269)", "test": "co-IP, IgG control, N-FLAG B3GNT2 cell lysate, mass spectrometry"}, "EIF4G1": {"target": "EIF4G1 (UniProt Q04637)", "sequence (Q04637 41-1599 limits assumed)": "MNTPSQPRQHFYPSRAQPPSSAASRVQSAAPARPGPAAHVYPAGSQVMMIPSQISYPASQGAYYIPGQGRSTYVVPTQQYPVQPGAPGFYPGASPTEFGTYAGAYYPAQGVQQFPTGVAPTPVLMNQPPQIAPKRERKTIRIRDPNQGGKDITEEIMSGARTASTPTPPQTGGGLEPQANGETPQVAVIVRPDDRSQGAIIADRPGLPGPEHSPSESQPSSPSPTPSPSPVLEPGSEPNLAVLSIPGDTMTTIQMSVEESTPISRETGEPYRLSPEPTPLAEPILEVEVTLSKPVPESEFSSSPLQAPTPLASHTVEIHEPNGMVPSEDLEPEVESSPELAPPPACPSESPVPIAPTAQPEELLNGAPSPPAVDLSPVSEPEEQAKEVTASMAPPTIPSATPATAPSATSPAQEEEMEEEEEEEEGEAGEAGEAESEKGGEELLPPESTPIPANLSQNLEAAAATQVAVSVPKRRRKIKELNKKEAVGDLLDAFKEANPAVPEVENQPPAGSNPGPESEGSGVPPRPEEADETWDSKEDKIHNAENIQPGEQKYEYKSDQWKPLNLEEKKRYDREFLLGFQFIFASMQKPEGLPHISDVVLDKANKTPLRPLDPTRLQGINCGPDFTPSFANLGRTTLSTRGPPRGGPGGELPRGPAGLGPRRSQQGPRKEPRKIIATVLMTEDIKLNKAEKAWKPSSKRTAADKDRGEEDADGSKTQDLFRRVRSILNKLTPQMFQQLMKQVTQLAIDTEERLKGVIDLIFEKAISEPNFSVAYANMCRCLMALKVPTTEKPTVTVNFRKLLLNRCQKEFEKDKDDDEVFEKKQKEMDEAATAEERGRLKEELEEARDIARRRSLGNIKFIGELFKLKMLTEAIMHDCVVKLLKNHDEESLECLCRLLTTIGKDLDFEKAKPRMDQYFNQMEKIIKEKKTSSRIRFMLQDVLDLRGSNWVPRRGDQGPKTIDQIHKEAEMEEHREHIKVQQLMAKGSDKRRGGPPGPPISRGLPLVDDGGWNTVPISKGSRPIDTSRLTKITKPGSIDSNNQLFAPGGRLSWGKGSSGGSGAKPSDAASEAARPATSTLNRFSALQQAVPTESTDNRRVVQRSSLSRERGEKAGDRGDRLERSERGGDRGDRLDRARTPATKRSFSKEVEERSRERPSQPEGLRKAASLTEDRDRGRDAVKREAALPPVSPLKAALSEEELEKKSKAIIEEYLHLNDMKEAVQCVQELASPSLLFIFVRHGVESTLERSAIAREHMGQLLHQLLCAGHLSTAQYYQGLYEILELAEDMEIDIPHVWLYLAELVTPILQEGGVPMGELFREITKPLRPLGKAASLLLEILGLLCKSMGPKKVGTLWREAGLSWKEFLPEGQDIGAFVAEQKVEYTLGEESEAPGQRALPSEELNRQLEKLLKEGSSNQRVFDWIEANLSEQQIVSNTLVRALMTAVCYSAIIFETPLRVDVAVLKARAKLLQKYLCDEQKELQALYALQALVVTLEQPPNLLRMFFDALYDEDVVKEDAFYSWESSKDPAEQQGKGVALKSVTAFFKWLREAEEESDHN", "test": "co-IP, IgG control, N-FLAG B3GNT2 cell lysate, mass spectrometry"}, "RPL27A": {"target": "RPL27A (UniProt P46776)", "test": "co-IP, IgG control, N-FLAG B3GNT2 cell lysate, mass spectrometry"}, "SSRP1": {"target": "SSRP1 (UniProt Q08945)", "test": "co-IP, IgG control, N-FLAG B3GNT2 cell lysate, mass spectrometry"}, "SERPINE2": {"target": "SERPINE2 (UniProt P07093)", "test": "co-IP, anti-FLAG, lysate of N-FLAG B3GNT2 cells, mass spectrometry"}, "SRSF7": {"target": "SRSF7 (UniProt Q16629)", "test": "co-IP, anti-FLAG, lysate of N-FLAG B3GNT2 cells, mass spectrometry"}, "LOXL4": {"target": "LOXL4 (UniProt Q96JB6)", "sequence (Q96JB6 25-756 limits assumed)": "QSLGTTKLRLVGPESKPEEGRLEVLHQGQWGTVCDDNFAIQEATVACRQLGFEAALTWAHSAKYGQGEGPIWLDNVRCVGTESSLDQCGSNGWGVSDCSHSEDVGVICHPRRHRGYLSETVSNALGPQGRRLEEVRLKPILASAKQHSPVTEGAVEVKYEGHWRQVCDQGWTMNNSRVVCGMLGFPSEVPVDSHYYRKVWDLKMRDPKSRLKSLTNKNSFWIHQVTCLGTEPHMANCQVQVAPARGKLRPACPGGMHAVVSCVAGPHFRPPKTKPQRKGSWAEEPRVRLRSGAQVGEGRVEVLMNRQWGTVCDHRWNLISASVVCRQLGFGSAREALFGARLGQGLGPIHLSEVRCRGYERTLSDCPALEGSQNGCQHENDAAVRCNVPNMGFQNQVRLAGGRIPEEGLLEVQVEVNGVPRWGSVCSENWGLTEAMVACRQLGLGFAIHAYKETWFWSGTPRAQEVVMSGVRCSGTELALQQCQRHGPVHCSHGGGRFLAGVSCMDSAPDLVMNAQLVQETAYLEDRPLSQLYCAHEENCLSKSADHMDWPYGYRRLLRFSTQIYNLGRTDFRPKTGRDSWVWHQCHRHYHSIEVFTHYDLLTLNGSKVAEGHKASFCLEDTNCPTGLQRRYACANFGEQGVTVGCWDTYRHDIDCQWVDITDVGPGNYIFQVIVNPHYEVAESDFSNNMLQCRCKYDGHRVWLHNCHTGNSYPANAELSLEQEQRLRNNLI", "test": "co-IP, anti-FLAG, lysate of N-FLAG B3GNT2 cells, mass spectrometry"}, "OS9": {"target": "OS9 (UniProt Q13438)", "sequence (Q13438 other isoform, or with tags, fused parts or gaps limits assumed)": "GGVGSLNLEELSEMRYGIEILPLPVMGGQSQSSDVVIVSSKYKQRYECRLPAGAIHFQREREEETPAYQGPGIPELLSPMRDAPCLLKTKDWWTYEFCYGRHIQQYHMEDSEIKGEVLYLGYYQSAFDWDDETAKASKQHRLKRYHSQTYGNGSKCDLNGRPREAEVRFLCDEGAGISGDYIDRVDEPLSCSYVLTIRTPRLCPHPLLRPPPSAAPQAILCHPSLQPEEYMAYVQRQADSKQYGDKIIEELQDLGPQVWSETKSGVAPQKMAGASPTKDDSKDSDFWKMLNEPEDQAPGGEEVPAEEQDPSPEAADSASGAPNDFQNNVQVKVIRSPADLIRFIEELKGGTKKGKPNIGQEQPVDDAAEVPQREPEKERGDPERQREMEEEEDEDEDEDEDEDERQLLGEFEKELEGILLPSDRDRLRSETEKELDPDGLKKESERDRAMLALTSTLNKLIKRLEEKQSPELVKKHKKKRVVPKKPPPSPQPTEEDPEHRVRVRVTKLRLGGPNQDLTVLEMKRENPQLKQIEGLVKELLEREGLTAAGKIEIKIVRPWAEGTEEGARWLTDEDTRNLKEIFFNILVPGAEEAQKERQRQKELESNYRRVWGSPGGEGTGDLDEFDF", "test": "co-IP, anti-FLAG, lysate of N-FLAG B3GNT2 cells, mass spectrometry"}, "PSMA4": {"target": "PSMA4 (UniProt P25789)", "sequence (P25789 whole entry)": "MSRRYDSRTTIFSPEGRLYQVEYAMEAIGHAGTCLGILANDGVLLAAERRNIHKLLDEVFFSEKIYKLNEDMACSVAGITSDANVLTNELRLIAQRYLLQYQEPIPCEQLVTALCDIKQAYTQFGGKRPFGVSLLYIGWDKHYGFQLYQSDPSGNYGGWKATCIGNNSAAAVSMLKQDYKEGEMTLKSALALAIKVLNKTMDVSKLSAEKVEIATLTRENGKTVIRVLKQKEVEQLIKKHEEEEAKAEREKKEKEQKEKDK", "test": "co-IP, anti-FLAG, lysate of N-FLAG B3GNT2 cells, mass spectrometry"}, "SLC25A10": {"target": "SLC25A10 (UniProt Q9UBX3)", "test": "co-IP, anti-FLAG, lysate of N-FLAG B3GNT2 cells, mass spectrometry"}, "RAB1B": {"target": "RAB1B (UniProt Q9H0U4)", "test": "co-IP, anti-FLAG, lysate of N-FLAG B3GNT2 cells, mass spectrometry"}, "SMN1": {"target": "SMN1 (UniProt Q16637)", "sequence (Q16637 other isoform, or with tags, fused parts or gaps limits assumed)": "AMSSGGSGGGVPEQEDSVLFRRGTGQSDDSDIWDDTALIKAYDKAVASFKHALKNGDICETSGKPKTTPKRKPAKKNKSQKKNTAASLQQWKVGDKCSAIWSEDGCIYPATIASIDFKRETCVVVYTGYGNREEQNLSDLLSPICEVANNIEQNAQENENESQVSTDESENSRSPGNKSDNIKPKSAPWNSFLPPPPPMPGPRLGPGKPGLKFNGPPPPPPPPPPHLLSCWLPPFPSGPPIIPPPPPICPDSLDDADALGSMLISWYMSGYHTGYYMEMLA", "test": "co-IP, anti-FLAG, lysate of N-FLAG B3GNT2 cells, mass spectrometry"}},
  "data": [
    {"substance": "IgG control (Millipore Sigma 12-371) (antibody)", "values": [
      {"measurement": "co-IP mass spectrometry count", "setting": "CFL1", "result": 3},
      {"measurement": "co-IP mass spectrometry count", "setting": "RPL22", "result": 0},
      {"measurement": "co-IP mass spectrometry count", "setting": "POF1B", "result": 0},
      {"measurement": "co-IP mass spectrometry count", "setting": "MTDH", "result": 0},
      {"measurement": "co-IP mass spectrometry count", "setting": "CDSN", "result": 0},
      {"measurement": "co-IP mass spectrometry count", "setting": "MTCH2", "result": 0},
      {"measurement": "co-IP mass spectrometry count", "setting": "EMD", "result": 0},
      {"measurement": "co-IP mass spectrometry count", "setting": "NCCRP1", "result": 4},
      {"measurement": "co-IP mass spectrometry count", "setting": "RPL37A", "result": 4},
      {"measurement": "co-IP mass spectrometry count", "setting": "TXN", "result": 3},
      {"measurement": "co-IP mass spectrometry count", "setting": "RPL35", "result": 2},
      {"measurement": "co-IP mass spectrometry count", "setting": "HIST1H1E", "result": 2},
      {"measurement": "co-IP mass spectrometry count", "setting": "HNRNPU", "result": 2},
      {"measurement": "co-IP mass spectrometry count", "setting": "ITGB3", "result": 0},
      {"measurement": "co-IP mass spectrometry count", "setting": "LIMA1", "result": 3},
      {"measurement": "co-IP mass spectrometry count", "setting": "RPS13", "result": 2},
      {"measurement": "co-IP mass spectrometry count", "setting": "TNKS1BP1", "result": 4},
      {"measurement": "co-IP mass spectrometry count", "setting": "DEFA3", "result": 3},
      {"measurement": "co-IP mass spectrometry count", "setting": "RPS19", "result": 5},
      {"measurement": "co-IP mass spectrometry count", "setting": "PSMA7", "result": 0},
      {"measurement": "co-IP mass spectrometry count", "setting": "TMEM59", "result": 0},
      {"measurement": "co-IP mass spectrometry count", "setting": "RPL19", "result": 2},
      {"measurement": "co-IP mass spectrometry count", "setting": "RPS16", "result": 10},
      {"measurement": "co-IP mass spectrometry count", "setting": "RPS2", "result": 10},
      {"measurement": "co-IP mass spectrometry count", "setting": "HSPB1", "result": 4},
      {"measurement": "co-IP mass spectrometry count", "setting": "TAGLN", "result": 0},
      {"measurement": "co-IP mass spectrometry count", "setting": "ARG1", "result": 4},
      {"measurement": "co-IP mass spectrometry count", "setting": "RPL5", "result": 0},
      {"measurement": "co-IP mass spectrometry count", "setting": "RPS18", "result": 11},
      {"measurement": "co-IP mass spectrometry count", "setting": "EIF4G1", "result": 2},
      {"measurement": "co-IP mass spectrometry count", "setting": "RPL27A", "result": 3},
      {"measurement": "co-IP mass spectrometry count", "setting": "SSRP1", "result": 0}
    ]},
    {"substance": "N-terminal FLAG tagged B3GNT2 (from UniProt Q9NY97 1-397) (enzyme)", "values": [
      {"measurement": "co-IP/MS count", "setting": "SERPINE2", "result": 4},
      {"measurement": "co-IP/MS count", "setting": "SRSF7", "result": 2},
      {"measurement": "co-IP/MS count", "setting": "LOXL4", "result": 5},
      {"measurement": "co-IP/MS count", "setting": "OS9", "result": 3},
      {"measurement": "co-IP/MS count", "setting": "PSMA4", "result": 2},
      {"measurement": "co-IP/MS count", "setting": "SLC25A10", "result": 5},
      {"measurement": "co-IP/MS count", "setting": "RAB1B", "result": 0},
      {"measurement": "co-IP/MS count", "setting": "SMN1", "result": 10}
    ]}
  ]
}
